The nature of the data set: soluble on expression in E. coli; label from the status in PepcDB or PDB records.
For “GMNGFSQLEGLRGHPSVVRVIGHRGARGVMPENTLEGFAFTLAAGVRALEFDVVMTADGVPVVTHNHHLANAMTRDGQGHWLTGAERQVAEMTYAEIRALDVGGLDGRTVYGRRFPDQAFLTGIHVPRLGELLDLCAGYGDQAPYLLLELKSDPALMHDHAARAEMVAAVLADVRRYRMEPRTVMHSFDWALLGECRRQAPDLPTSYLSQLPENADDPGEDSAKPVGPDYDRMTESLPQAVASAGGQLWCPYFLDVTPELVAEAHDLGLIVLTWTVNEPEDIRRMATTGVDGIVTDYPGRTQRILIDMGLSWT”, the “soluble on expression in E. coli” value was “soluble”.
As to “MGFGDLKSPAGLQVLNDYLADKSYIEGYVPSQADVAVFEAVSSPPPADLCHALRWYNHIKSYEKEKASLPGVKKALGKYGPADVEDTTGSGATDSKDDDDIDLFGSDDEEESEEAKRLREERLAQYESKKAKKPALVAKSSILLDVKPWDDETDMAKLEECVRSIQADGLVWGSSKLVPVGYGIKKLQIQCVVEDDKVGTDMLEEQITAFEDYVQSMDVAAFNKI”, the “soluble on expression in E. coli” value was “soluble”.
As for “MGSDKIHHHHHHMLKRKIETFLAKWKKSEDRKPLVIKGIRQCGKTYIVQKFAKENYESVVYMNFILEPDKKSAFTGNIDVDTIILNLSALIQGSRFINGKTCIILDEIQECKEARTALKSFHIDGRFDVIATGSLLGVKGYDKSKKKKEEEEGQDSVPVGYETVIDMYPLDFEEFLWANGISDMVIDSVKSCFENESTVPDGIHKAMMELLYRYVIVGGLPEVVNCFLETKNIELIYKVQRNLIAEYEEDMVKYADDPDKPRIRECFESIPKQLAKENKKFQYSVVKKGGRASQYIGSIQWLEDAGIVRRCYNTQITELPLEGNSIKGSFKVYTTDIGILMAMLDYGTQADILKGNLLGYKGAIFENLMADFLCKSGQKLYYFHKDSGLELDFLVRFKGECVILEVKAKTGKAKSMTTVLKNKDVYYVNNAIKLGQYNVGCEGDILTIPLYMGFLVEDKLADVIIPDVDVSLLTTI”, the “soluble on expression in E. coli” value is listed as “not soluble”.
“MGSDKIHHHHHHMFNSEIKEKYLDTLSEGMVMQMRPIFAKAEITETLYNKDIYDFTSMQILELIRSFDQTTIGSVRRTLALLSLYIDWAISYKLSKGLTNLARTISEEELYECLGDKKLYITYSELEEMENQLVNYQSKAVLRLLFEEVSGLAHSELLSLTKKQVEDAMLNGNVLTLYDSKHGERKLKVSSECLVIALNAAQETKYKLKNGKAKGQTKEVFLVENDYVVKTKRTSNKGDGQASKFVITNLITDISEFFKINFLTPNTIVRSGHLYRAYQLYKEKGVIDNSVRYQIIDDFNLRVKSKYRAVYSMQDYINEEEVNKYYAEELGLKETTI”: the “soluble on expression in E. coli” value is “not soluble”.
As for “MSLKFIVKPHPEIFVKSESVRKRFTKILESNIRIIVKARTQGVAVFNRRDHIEVTSNSDTYYAEVLEILTTTPGIQQVLEVQQSSFTDLHNIYEQVLELNRANLENKTFVVRAKRRGKHDFTSIELERYVGGGLNQAIASAKVKLINPDVTVQVEVVDELLNQVIARHKGLGGFPLGTQEDVLSLISGGFDSGVSSYLHIKRGSKVHYCFFNLGGPAHEIGVKQTAYYLWQKYGSSAKVRFIAIDFAPVVAEILEKIDDGQMGVVLKRMFMRTAGMVAEKFGIQALVTGEALGQVSSQTLTNLRHIDNVTDTLILRPLINWDKEDIIRLAREIGTEDFAKTMPEFCGVISKSPTVKAVKEKLEEEEAKFDFALLDQVVYNARQIDIRDIGKEGHHHHHH”, the entry is “soluble”; as for “MGSDKIHHHHHHMETVQYDYKQILQRIVAEIKSSRIQVARKITSATMELYWNIGKELSAQHLSKGYGAQVVEMLASDLQKEFPGTTGFSSRNLWEMKRFYERYCGESRKLQQSVAVLPWGHNLLLMSKCKNPEEIYFYATRSTELGWTRDVLLNYIKADAFSTREEQPKLHNFKETLPECLQEQAEEMLKSRYNLEFLGITKPILELELERRLVDKIKTFLLEMGKGFSFIGNQYRLVLEDKEYFVDMLFFNRCTRSLIALELKIGSFQPEYVGKMNFYLNLLDRQVKMPDENPSIGIILCADRNNVEVEVALQGSTAPIGVSEYSYLIPQKQIKELINNELSGNKE”, “not soluble”.
As to “MGLKIGDIVSRKSYGSDILFKVVDIKYEKGRKIVVLKGICYRLEADAPETDLIVQPDSYVREYNARVNRAINEKLKSLNESLMREKTKKKFFRDAAKENNENFPRPGKVLHVDGDSDYLDTCMEEYRKLGMDAVGVYVKEKEQPLKIYNLLKEHKPDILVLTGHDGVIKSEKGYSDITNYRNSKYFVEAVREARRFDGNLDSLVIFAGACQSMFKKIIEAGANFASSPYRVLIHALDPVMVCEKIAFTSINQVISPQDVISKTITGVKGIGGIETRGKYRDGFPREPYNIK”, the “soluble on expression in E. coli” value is listed as “soluble”.

These data come from the DeepSol protein solubility set.
